From patent US20210332146A1 (ACADEMIA SINICA, published 2021)

T1: CD20 (human, UniProt P11836 1-297)
T1 construct: whole, on cells; Target on B-lymphoma cells in flow cytometry; also called CD20 antigen; B-lymphocyte-restricted differentiation antigen
T1 sequence (looked up): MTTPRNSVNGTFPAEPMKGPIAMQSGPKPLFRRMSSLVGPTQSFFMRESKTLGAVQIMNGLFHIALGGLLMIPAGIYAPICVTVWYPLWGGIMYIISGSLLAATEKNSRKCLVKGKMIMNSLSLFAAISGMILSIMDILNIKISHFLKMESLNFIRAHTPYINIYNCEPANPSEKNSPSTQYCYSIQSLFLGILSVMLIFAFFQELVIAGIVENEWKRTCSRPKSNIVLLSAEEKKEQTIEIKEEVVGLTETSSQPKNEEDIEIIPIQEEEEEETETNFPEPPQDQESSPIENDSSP


What was measured:
[1] = target: T2, FcγRIIIA recombinant protein (UniProt P08637 17-208, limits assumed); test: SPR, Biacore T200; antibody captured on anti-human Fab chip, FcγRIIIA injected (12.5-200 nM), single cycle kinetics, 1:1 model
T2 construct: also called FcRIIIA
Method: (§1) FcγRIIIA was transfected into HEK-293 cell line to express recombinant protein. The secreted FcγRIIIA recombinant protein was purified and then diluted to serial concentration in HBS-EP buffer (200 nM, 100 nM, 50 nM, 25 nM, and 12.5 nM). […] A serial titration of FcγRIIIA was injected and bound at the flow rate of […]. Single cycle kinetics data was fitted into 1:1 binding model using Biacore T200 evaluation software to measure the equilibrium constant (Ka/Kd).

[2] = target: T2, FcγRIIIA recombinant protein; test: SPR, Biacore T200; antibody captured on anti-human Fab chip, FcγRIIIA injected (12.5-200 nM), single cycle kinetics, 1:1 model; Rituxan reference, not glycoengineered; upper end of the range
Method: as §1

CD20 [3] = target: T1, CD20; test: flow cytometry on SUDHL4 (SU-DHL4) cells, MFI against antibody concentration
CD20 [4] = target: T1, CD20; test: flow cytometry on Ramos cells (CD20+ B lymphoma), MFI against antibody concentration
Method: Binding to B-lymphoma cells. The binding of the antibodies was investigated in CD20⁺ B lymphoma cell lines (Ramos and SKW6.4) and analyzed on flow cytometry. The cells in PBS containing 1% fetal bovine serum at 2×10⁵/well on microplate were incubated on ice for 1 hr with antibodies of interest at different concentrations. The cells are washed, re-suspended in the PBS buffer, and incubated with the detecting goat anti-hIgG-Fcγ-PE on ice for 30 min. The cells are washed and subjected to analysis on FACS.

[5] = target: T2, FcγRIIIA recombinant protein; test: SPR as above; category letter explained in the note of Table 4
Method: as §1

[6] = target: T2, FcγRIIIA recombinant protein; test: >
Method: as §1

T2 sequence (P08637 17-208 limits assumed): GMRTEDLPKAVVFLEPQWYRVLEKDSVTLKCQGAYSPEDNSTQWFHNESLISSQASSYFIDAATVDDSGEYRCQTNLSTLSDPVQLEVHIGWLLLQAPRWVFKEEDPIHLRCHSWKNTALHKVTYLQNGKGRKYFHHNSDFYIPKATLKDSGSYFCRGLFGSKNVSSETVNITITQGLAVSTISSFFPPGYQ

Binder | Kd [1] | EC50 (read off the curve) (CD20 [3]) | Fold (increase against Rituxan) [5] | also measured
Rituximab (antibody, human IgG1, kappa, heterogeneous N-glycans at Asn-297 of the Fc (more than 50 glycoforms; greater than 90% of N-glycans are fucosylated), Chimeric anti-CD20 IgG made in CHO cells, purchased from Genentech; DrugBank DB00073; also called Rituxan; RTX) heavy: not shown light: QIVLSQSPAILSASPGEKVTMTCRASSSVSYIHWFQQKPGSSPKPWIYATSNLASGVPVRFSGSGSGTSYSLTISRVEAEDAATYYCQQWTSNPPTFGGGTKLEIKRTVAAPSVFIFPPSDEQLKSGTASVVCLLNNFYPREAKVQWKVDNALQSGNSQESVTEQDSKDSTYSLSSTLTLSKADYEKHKVYACEVTHQGLSSPVTKSFNRGEC | 100 nM | ~0.6 µg/mL |  | Kd [2]: ≤ 300 nM; EC50 (read off the curve) (CD20 [4]): ~0.6 µg/mL
anti-CD20 GAb105 (antibody, human IgG1, kappa, homogeneous N-glycan at Asn-297, no core fucose: glycan-105 (GalGlcNAc2Man3GlcNAc) transferred onto the GlcNAc of GAb201, the text gives them the other way round) heavy: not shown light: QIVLSQSPAILSASPGEKVTMTCRASSSVSYIHWFQQKPGSSPKPWIYATSNLASGVPVRFSGSGSGTSYSLTISRVEAEDAATYYCQQWTSNPPTFGGGTKLEIKRTVAAPSVFIFPPSDEQLKSGTASVVCLLNNFYPREAKVQWKVDNALQSGNSQESVTEQDSKDSTYSLSSTLTLSKADYEKHKVYACEVTHQGLSSPVTKSFNRGEC |  |  | > 30 fold | 
anti-CD20 GAb101 (antibody, human IgG1, kappa, homogeneous N-glycan at Asn-297, no core fucose: glycan-101 (Sia2Gal2GlcNAc2Man3GlcNAc) transferred onto the GlcNAc of GAb201; 2,6 sialic acid linkage, the text gives them the other way round) heavy: not shown light: QIVLSQSPAILSASPGEKVTMTCRASSSVSYIHWFQQKPGSSPKPWIYATSNLASGVPVRFSGSGSGTSYSLTISRVEAEDAATYYCQQWTSNPPTFGGGTKLEIKRTVAAPSVFIFPPSDEQLKSGTASVVCLLNNFYPREAKVQWKVDNALQSGNSQESVTEQDSKDSTYSLSSTLTLSKADYEKHKVYACEVTHQGLSSPVTKSFNRGEC |  | ~0.7 µg/mL |  | Fold (increase against Rituxan) [6]: 30 fold
anti-CD20 GAb102 (antibody, human IgG1, kappa, homogeneous N-glycan at Asn-297, no core fucose: glycan-102 (SiaGal2GlcNAc2Man3GlcNAc) transferred onto the GlcNAc of GAb201, the text gives them the other way round) heavy: not shown light: QIVLSQSPAILSASPGEKVTMTCRASSSVSYIHWFQQKPGSSPKPWIYATSNLASGVPVRFSGSGSGTSYSLTISRVEAEDAATYYCQQWTSNPPTFGGGTKLEIKRTVAAPSVFIFPPSDEQLKSGTASVVCLLNNFYPREAKVQWKVDNALQSGNSQESVTEQDSKDSTYSLSSTLTLSKADYEKHKVYACEVTHQGLSSPVTKSFNRGEC |  |  | > 30 fold | 

Second part, led by results:

Kd [1] | EC50 (read off the curve) (CD20 [3]) | Fold (increase against Rituxan) [5] | Binder | also measured
7 to 30 nM |  |  | anti-CD20 GAb106 (antibody, human IgG1, kappa, homogeneous N-glycan at Asn-297, no core fucose: glycan-106 (GalGlcNAcMan3GlcNAc) transferred onto the GlcNAc of GAb201, the text gives them the other way round) heavy: not shown light: QIVLSQSPAILSASPGEKVTMTCRASSSVSYIHWFQQKPGSSPKPWIYATSNLASGVPVRFSGSGSGTSYSLTISRVEAEDAATYYCQQWTSNPPTFGGGTKLEIKRTVAAPSVFIFPPSDEQLKSGTASVVCLLNNFYPREAKVQWKVDNALQSGNSQESVTEQDSKDSTYSLSSTLTLSKADYEKHKVYACEVTHQGLSSPVTKSFNRGEC | 
 |  | > 30 fold | anti-CD20 GAb104 (antibody, human IgG1, kappa, homogeneous N-glycan at Asn-297, no core fucose: glycan-104 (Gal2GlcNAc2Man3GlcNAc) transferred onto the GlcNAc of GAb201, the text gives them the other way round) heavy: not shown light: QIVLSQSPAILSASPGEKVTMTCRASSSVSYIHWFQQKPGSSPKPWIYATSNLASGVPVRFSGSGSGTSYSLTISRVEAEDAATYYCQQWTSNPPTFGGGTKLEIKRTVAAPSVFIFPPSDEQLKSGTASVVCLLNNFYPREAKVQWKVDNALQSGNSQESVTEQDSKDSTYSLSSTLTLSKADYEKHKVYACEVTHQGLSSPVTKSFNRGEC | 
